Assay results taken from PMC4522657, “Identification of a DYRK1A Inhibitor that Induces Degradation of the Target Kinase using Co-chaperone CDC37 fused with Luciferase nanoKAZ” (Scientific Reports, 2015).

T1: 3xFLAG-tagged DYRK4 (UniProt Q9NR20 1-520)
T1 construct: DYRK4; residues of F2A may remain at the C-terminus (surmise); also called 3xFLAG-DYRK4; source: 293T cells stably expressing CDC37-nanoKAZ, transiently transfected (pcDNA5/FRT/TO), in lysate
T1 sequence (looked up): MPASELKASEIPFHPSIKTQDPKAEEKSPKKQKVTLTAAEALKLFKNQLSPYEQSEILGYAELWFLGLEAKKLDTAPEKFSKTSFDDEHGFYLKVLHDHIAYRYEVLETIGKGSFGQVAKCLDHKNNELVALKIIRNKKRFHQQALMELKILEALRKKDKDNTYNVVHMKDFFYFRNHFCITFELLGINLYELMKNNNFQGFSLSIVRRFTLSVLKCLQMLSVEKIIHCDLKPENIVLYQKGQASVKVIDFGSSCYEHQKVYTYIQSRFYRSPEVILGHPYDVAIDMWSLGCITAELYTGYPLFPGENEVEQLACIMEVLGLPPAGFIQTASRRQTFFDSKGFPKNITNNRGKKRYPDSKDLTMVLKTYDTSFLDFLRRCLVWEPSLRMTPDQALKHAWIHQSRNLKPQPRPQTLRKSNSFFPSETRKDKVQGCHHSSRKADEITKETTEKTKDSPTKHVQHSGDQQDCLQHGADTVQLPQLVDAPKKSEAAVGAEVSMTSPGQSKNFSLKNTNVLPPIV


Assays:
Assay in all cases: ELISA; Lysates (HENG buffer: 50 mM HEPES-KOH pH 7.9, 150 mM NaCl, 20 mM Na2MoO4, 2 mM EDTA, 5% glycerol, 0.5% Triton X-100) of 293T cells stably expressing CDC37-nanoKAZ, nanoKAZ-HSP90β or nanoKAZ and transiently transfected with 3xFLAG-tagged kinases; 3xFLAG-kinase captured on 96-well plates coated with anti-FLAG M2, 4 °C for 3 h, washed; bound nanoKAZ fusion read by luminescence (Imax) with bis-coelenterazine, as …
Conditions in all cases: partners not purified
[1] = molecular target: T2, 3xFLAG-DYRK1A (Y319F/Y321F) (UniProt Q13627-1 1-763, Y319F | Y321F)
T2 construct: Expressed upstream of F2A-EGFP as m2; also called Y319F/Y321F mutant; DYRK1A mutant

[2] = molecular target: T3, 3xFLAG-tagged kinase-dead mutant of DYRK1A (K188R) (UniProt Q13627-1 1-763, K188R)
T3 construct: DYRK1A with Lys188 substituted to Arg; Expressed upstream of F2A-EGFP as m2; also called K188R mutant

3xFLAG-DYRK1A (Y159F) = molecular target: T4, 3xFLAG-DYRK1A (Y159F) (UniProt Q13627-1 1-763, Y159F)
T4 construct: DYRK1A with the autophosphorylation site Tyr159 substituted to Phe; Expressed upstream of F2A-EGFP as m2

[3] = molecular target: T5, 3xFLAG-DYRK1A (Y145F/Y147F) (UniProt Q13627-1 1-763, Y145F | Y147F)
T5 construct: DYRK1A with the autophosphorylation sites Tyr145 and Tyr147 substituted to Phe; Expressed upstream of F2A-EGFP as m2

3xFLAG-DYRK1A (Y111F) = molecular target: T6, 3xFLAG-DYRK1A (Y111F) (UniProt Q13627-1 1-763, Y111F)
T6 construct: DYRK1A with the autophosphorylation site Tyr111 substituted to Phe; Expressed upstream of F2A-EGFP as m2

3xFLAG-tagged DYRK4 = molecular target: T1, 3xFLAG-tagged DYRK4

Sequence of nanoKAZ-HSP90β (P08238 whole entry, the tested form may be a part): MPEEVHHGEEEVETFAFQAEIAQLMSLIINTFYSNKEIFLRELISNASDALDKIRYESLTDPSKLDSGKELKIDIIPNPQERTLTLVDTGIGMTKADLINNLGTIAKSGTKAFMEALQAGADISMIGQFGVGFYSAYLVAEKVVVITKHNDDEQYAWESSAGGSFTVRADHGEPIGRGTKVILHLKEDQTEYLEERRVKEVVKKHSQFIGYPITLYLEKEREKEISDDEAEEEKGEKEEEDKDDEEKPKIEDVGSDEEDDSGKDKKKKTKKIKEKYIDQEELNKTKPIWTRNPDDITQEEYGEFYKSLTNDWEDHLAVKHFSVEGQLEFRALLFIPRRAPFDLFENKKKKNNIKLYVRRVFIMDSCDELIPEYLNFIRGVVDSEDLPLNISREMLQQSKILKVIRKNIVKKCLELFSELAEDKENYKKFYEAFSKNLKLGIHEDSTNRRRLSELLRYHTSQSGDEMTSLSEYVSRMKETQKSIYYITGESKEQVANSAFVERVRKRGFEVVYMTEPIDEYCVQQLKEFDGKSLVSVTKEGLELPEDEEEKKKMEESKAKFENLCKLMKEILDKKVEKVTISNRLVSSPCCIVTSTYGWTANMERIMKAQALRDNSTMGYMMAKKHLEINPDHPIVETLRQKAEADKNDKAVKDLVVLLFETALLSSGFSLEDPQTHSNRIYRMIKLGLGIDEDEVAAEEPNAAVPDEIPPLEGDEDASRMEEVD

Binder	fold stronger interaction than intact DYRK1A [1]	fold stronger interaction than intact DYRK1A [2]	fold stronger interaction than intact DYRK1A (3xFLAG-DYRK1A (Y159F))	fold stronger interaction than intact DYRK1A [3]	fold stronger interaction than intact DYRK1A (3xFLAG-DYRK1A (Y111F))	fold stronger interaction than 3xFLAG-DYRK1A (3xFLAG-tagged DYRK4)
nanoKAZ-HSP90β (natural protein, HSP90β (HSP90AB1 gene product); Codon-optimized nanoKAZ (GenBank AB823628) fused to the amino-terminus of HSP90β; also called HSP90β fused with nanoKAZ; nanoKAZ-HSP90AB1; source: 293T cell line stably expressing nanoKAZ-HSP90β (pCAGIPuro vector), in lysate; not shown: nanoKAZ (luciferase reporter), N-terminal, kept) not shown	3.8 fold	10 fold	–	–	–	–
CDC37-nanoKAZ (natural protein, UniProt Q16543 1-378, looked up, Kinase-specific co-chaperone CDC37; also called CDC37 fused with nanoKAZ; source: 293T cells stably expressing CDC37-nanoKAZ (pCAGIPuro vector), in lysate; not shown: nanoKAZ (luciferase reporter), C-terminal, kept) MVDYSVWDHIEVSDDEDETHPNIDTASLFRWRHQARVERMEQFQKEKEELDRGCRECKRKVAECQRKLKELEVAEGGKAELERLQAEAQQLRKEERSWEQKLEEMRKKEKSMPWNVDTLSKDGFSKSMVNTKPEKTEEDSEEVREQKHKTFVEKYEKQIKHFGMLRRWDDSQKYLSDNVHLVCEETANYLVIWCIDLEVEEKCALMEQVAHQTIVMQFILELAKSLKVDPRACFRQFFTKIKTADRQYMEGFNDELEAFKERVRGRAKLRIEKAMKEYEEEERKKRLGPGGLDPVEVYESLPEELQKCFDVKDVQMLQDAISKMDPTDAKYHMQRCIDSGLWVPNSKASEAKEGEEAGPGDPLLEAVPKTGDEKDVSV	8 fold	17 fold	8.4 fold	2.4 fold	1.4 fold	102 fold
